This assay has as its target Saccharomyces cerevisiae Asf1 (2–169) (Saccharomyces cerevisiae) (UniProt P32447). The assay is described as follows: MST.

The values that follow come from paper PMC5861439.

Chain of Saccharomyces cerevisiae Asf1 (2–169) (Saccharomyces cerevisiae) (P32447 2-169): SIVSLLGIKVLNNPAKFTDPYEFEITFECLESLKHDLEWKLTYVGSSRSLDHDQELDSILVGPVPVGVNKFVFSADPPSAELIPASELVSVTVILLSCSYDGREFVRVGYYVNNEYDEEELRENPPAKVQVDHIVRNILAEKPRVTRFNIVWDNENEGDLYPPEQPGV
Chain of full-length Saccharomyces cerevisiae Rtt109 (Q07794 whole entry): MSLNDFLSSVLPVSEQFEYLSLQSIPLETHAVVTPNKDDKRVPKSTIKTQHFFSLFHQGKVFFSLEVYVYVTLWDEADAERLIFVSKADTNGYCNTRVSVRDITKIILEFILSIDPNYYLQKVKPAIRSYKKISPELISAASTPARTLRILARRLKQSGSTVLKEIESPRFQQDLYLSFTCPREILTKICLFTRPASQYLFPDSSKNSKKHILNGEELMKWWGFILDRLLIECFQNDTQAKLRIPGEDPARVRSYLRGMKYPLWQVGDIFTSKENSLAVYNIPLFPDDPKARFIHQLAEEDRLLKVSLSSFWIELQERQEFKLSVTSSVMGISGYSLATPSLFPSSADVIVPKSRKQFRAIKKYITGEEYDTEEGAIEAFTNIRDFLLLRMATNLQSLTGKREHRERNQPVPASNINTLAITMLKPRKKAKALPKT
Chain of Rtt109−Vps75_(2) complex (Q07794 whole entry): as above
Chain of Rtt109−Vps75_(2) complex (P53853 whole entry): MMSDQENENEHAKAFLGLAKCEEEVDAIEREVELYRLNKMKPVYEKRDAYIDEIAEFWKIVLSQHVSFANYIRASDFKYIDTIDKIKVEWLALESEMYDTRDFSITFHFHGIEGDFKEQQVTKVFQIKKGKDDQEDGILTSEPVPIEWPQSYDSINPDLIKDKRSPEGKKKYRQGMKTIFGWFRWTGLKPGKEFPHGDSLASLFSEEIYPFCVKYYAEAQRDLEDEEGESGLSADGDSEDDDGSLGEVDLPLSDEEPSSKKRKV

The substance “Rtt109−Vps75_(2) complex (from UniProt Q07794;P53853)” registered a Kd of 42.7 µM. The same measure for “full-length Saccharomyces cerevisiae Rtt109 (from UniProt Q07794 1-436) (enzyme)”: 7.63 µM.
